Key:
purified protein [1] = substrate: CC(C)=CCC/C(C)=C\CC/C(C)=C\COP(=O)(O)OP(=O)(O)O; experiment: purified protein; format: biochemical, Solanum lycopersicum; conditions: 10-80 μM zzFPP at 50 μM 14C-IPP
purified protein [2] = substrate: C=C(C)CCO[P@@](=O)(O)OP(=O)(O)O; experiment: purified protein; conditions: 5-80 μM 14C-IPP at 150 μM zzFPP; labelled compound

B1: CPT2 (Solanum lycopersicum) (protein)
chain: MSDRGLSKISCSLSLQTEKLRYDNDDNDDLELHEELIPKHIALIMDGNRRWAKAKGLEVYEGHKLIIPKLKEICDISSKLGIQVITAFAFSTENWKRSKEEVDFLMQLFEEFFNEFLRFGVRVSVIGCKSNLPMTLQKCIALTEETTKGNKGLHLVIALNYGGYYDILQATKSIVNKAMNGLLDVEDINKNLFEQELESKCPNPDLLIRTGGEQRVSNFLLWQLAYTEFYFTNTLFPDFGEKDLKKAILNFQQRHRRFGGHTY
notes: N-terminal putative transit peptide (51 residues, 153 nt) deleted; vector pEXP5-CT/TOPO; E. coli BL21 (DE3)
In the case of B1, the Km (purified protein [1]) is reported as 22.9 ± 1.1 µM, the kcat (purified protein [1]) is reported as 0.0026 ± 0.0001 s⁻¹ and the kcat/Km (purified protein [1]) is reported as 110 ± 10 M⁻¹ s⁻¹. The Km (purified protein [2]) was 3.8 ± 0.3 µM, the kcat (purified protein [2]) was 0.0026 s⁻¹ and the kcat/Km (purified protein [2]) was 680 M⁻¹ s⁻¹.

Source: paper PMC4364678, “Biosynthesis of the Diterpenoid Lycosantalonol via Nerylneryl Diphosphate in Solanum lycopersicum” (PLoS ONE, 2015)
